± gives the half width of the 95% confidence interval.
experiment: folding stability dG unfold from trypsin proteolysis; higher = more stable
Summary of the method: (§1)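 Designed mini-proteins (under 80 residues, no cysteine) in a PA-tagged cDNA display construct were digested with trypsin and chymotrypsin. Each protease was used at 11 concentrations (threefold dilutions) plus a no-protease condition, followed by sequencing. K50 was inferred by Bayesian fitting of sequencing counts, and unfolding free energy was derived against a sequence-predicted unfolded-state K50 and a shared folded-state K50, per protease or combined. Only designs with AlphaFold2 dimer inter-PAE above 15 were kept.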

Sequence	folding stability dG unfold [kcal/mol]
MPLGLESERYPNGAPTIESVEVPEDGSVKITLYFPETGEKVEYTLPPNIPPGTEYEIDLPGPTGTGRLRLGS [r1_43_TrMRF]	-0.204 ± 0.2
SAMDIGPEERAELLLRTLANIAKEEIEKGDLEKAKIFVINGIAEENPPLAERILKEAKELGLPVIILPESAG [r14_908_TrMRF]	0.659 ± 0.1
SAGGMLLLTLTVDRVEEAEFPEKVPYLRTTTQPVVVPGTTLEEAEAVAAALAAAHGVPVTLTVTPETGSAGG [r13_320_JUSTAS]	-0.314 ± 0.16
SAGGSAKELIIKIKIKVKVNGKTYEIEIEIKAESIEEAIEAIKKKLEEEGLEIEIVEIEIIPKEELSAGGSA [r15_165_TrROS_Hall]	3 ± 0.086
SAGGSAGGSAGMTRTVTFTITDPNSSNTTTITVPTTSEQDVAAAKAALKAANPNVTITLTSAGGSAGGSAGG [r11_233_JUSTAS]	0.3 ± 0.12
SAGGSAGGSAGRRRVFFTPDGTLIVVDELPDFVRVTRYRITPGFPRIEPVDTRVLPPGALSAGGSAGGSAGG [r11_844_TrMRF]	1.11 ± 0.18
SAGGSAGGGKMEYDPKDGTMRWRDPANGIEHESRIEIPPIVIPADDLPKLREQFPPDMPVVLAGSAGGSAGG [r6_104_TrROS]	0.238 ± 0.034
SAGGSAGGSMPVLVSESPVGTLPDGTKVTRVTYRFPNGEILTETVVEPGPGPPTPENVALTLASAGGSAGGS [r12_775_JUSTAS]	2.04 ± 0.18
SELVEKAAEKGVKEIHIYLSEEQREAILKAADAGVKITIHLPEGATVEELKALPGIKVDKVEVFSPEELKSA [r9_671_TrROS_Hall]	0.273 ± 0.044
SAGSMKIKIKAKVPPGPYRIRIMWQYPGGDFKPVEEETVDPGQEVKIPIEFPDGKPFDPDNIRVMIEPPSAG [r5_287_TrROS]	1.44 ± 0.14
SAGGVLLEFPDGTTVEITVTTSTSTFKDPTTDKTVTKSSTTITVTRKTPDPVVTPVPASEAQRIFDSTSAGG [r13_809_JUSTAS]	2.13 ± 0.079
SAEERVFLVPVERRPDGSVRLRFVRPDRVVELELPAGFTVEDALQALSAHPDLRVEVLEAHPDLVLVRGSAG [r14_404_TrMRF]	1.824 ± 0.017
SKIKIEEVPEGEEVEIEIPETKKTITIVKKDDYLIIKVKDKKTGEEKEIVIKVPPENIEEVLKKIEELLKSA [r9_982_TrROS_Hall]	2.01 ± 0.1
SAGGMTVTLEIEIPAEELSEEELKALLEELFPNAEVTVERLPDGTLRITIRVEVPPAPPEVVVLPDKSAGGS [r16_535_TrROS_Hall]	2.63 ± 0.082
SADPPDAVKIEIRIYMMEYDPDGKWEQREFNIEIEVAPDGHIIIRLGNWWIVIDPKEGEVTEIFPGFRFSAG [r14_821_TrROS]	3.43 ± 0.13
SAGGSAGGSMSPEEARALAEALAEALGEPDVEVLEVVQTENPAADSTTVTVTIRLPDGSVRVLSAGGSAGGS [r12_508_JUSTAS]	1.63 ± 0.079
SAGGSAGGGGSSMTIVDPKDVPFGQTFTVTTYAPGGKKISTTTLTVDVPPPVWRTDGNGKWFLESAGGSAGG [r6_487_JUSTAS]	0.163 ± 0.19
SAGDPEVVAEAEFPFTFPLAKIEVRISVYPDGTARIEVTITFPAPGKGNPKKPIKLRFRFEIKLAPDALSAG [r5_224_TrMRF]	3.8 ± 0.3
SAGGSAGGSGAEEIAKALKELGVKKVEITVERNENGELTVTVRVEVEAPPPKVEVKTEEELKKSAGGSAGGS [r12_246_TrROS_Hall]	0.527 ± 0.1
SAGGSAGGSSAVVPLPDVVLVVLTFPDGGPPVLALLFPPTGRVVFVHPDSVTVAPFAPGGSLLSAGGSAGGS [r12_536_TrMRF]	1.1 ± 0.036
SAGGMTPEEARKLAEELAKKLEEEGKEVEVKVEVNKDGKVVKIEIKPEGEKVTITLPDGEKVLELELPSAGG [r13_693_TrROS_Hall]	1.09 ± 0.048

Sequence	folding stability dG unfold [kcal/mol]
SAGGSPMRIRDVEIEEFDPDAGRIEIRFPSNGNTIKIPIPPGHKSLKIKIRMKNGEPFEQTITIPPSAGGSA [r2_132_TrROS]	0.578 ± 0.14
SENPVLKNRPLPVVGTTERTSVAKPGESLDVKELPSNGIVATTPDGSTVGITVTVDANGNVLSLEIKPDPSA [r9_1195_JUSTAS]	0.00583 ± 0.068
SAGGSAGGSAGMRLLTVEYFDENGNPLSVEEIELYIERPPPPFLELEIDPRTGEPRFTGLSAGGSAGGSAGG [r17_348_JUSTAS]	1.01 ± 0.078
SKVIYVPPGATVEEILAAIKANKGKTVTIVMSREELERLKKALEEAGYEVEEVKVFEEEPYVVVKIKVKPSA [r9_1138_TrROS_Hall]	4 ± 0.17
SAGGMKEITLPNGVKITEVIEKDGYYYIKIYNKKTGKVYEIKVKKGEKIEIKFPKGSTVTKIEIVKKSAGGS [r16_123_TrROS_Hall]	1.7 ± 0.04
SAGGSAGGSAGMKPNEPDLVLLTTTVTLTTTETTTDEDGNTYTTTTTTTLTTTTLLPRGTSAGGSAGGSAGG [r17_523_TrROS_Hall]	2.77 ± 0.17
SAGGSAGGSAGGTGPPPVKTLVIVANWTEEQAEALKKAFPDQEVTVYEIPGLPKTVAVVSSAGGSAGGSAGG [r17_254_TrMRF]	0.833 ± 0.03
SMKIVKIEIEKIEIYSDEEFAKKTGIKPEAIYKNGKKKKVIKIPVKITLYDEKKGEKKEFEAEITIVIDVSA [r9_382_TrMRF]	1.56 ± 0.15
SAGGSAGGSAKPDPGAPYPWKIVEVVPIRIDMYFKFPGEPFKMDIEIPILVMVDPDNGKIFSAGGSAGGSAG [r3_391_TrROS]	2.3 ± 0.11
SATVTLVSVEKEGDKTTVTTRDPSGYTVTVTNPDGSIVLAPIPAEGAEAAIAAIKAAHPGVTVTLEAAASAG [r14_528_JUSTAS]	0.617 ± 0.036
SAGGSAGGSAVPFVLPDGYVLEVEPDPETGLYRIRVTSPDGRTYEFTAPPDVPLADIPVVIDDSAGGSAGGS [r12_261_TrMRF]	2.89 ± 0.059
SAGGMIEVFVEGLTLEETLRRLAEEYPDVPEVVVFFPDGTAVFFRRDGDEVEVVEVVPVGPVAPDELSAGGS [r8_225_TrMRF]	2.59 ± 0.068
SAGIKIKDISRDPNGYVEVTIVYPPGKSIKEIIELIRKLFGFKIEKVEIYPSPNGVYITYRFRIPEGAISAG [r5_774_TrROS]	3.15 ± 0.11
SEKVKITIEVWRPPGWWYVKIKLPDNGQEITYPFDSAEDFKEQIKKWLGLPPDNVKITDVEVYPMPPDDFSA [r9_909_TrROS]	1.82 ± 0.11
SAGGSDGEMITYPFLLPDGYLITIWISPENGQITEIEIMPIPAPPPEPPVEPKYGRDDGNGNKKYDSAGGSA [r2_78_TrROS]	1.14 ± 0.047
SAGGSAMKIEITVEKNENGELTITVKIYDKNGKLVKEIKLKVKTEEEAKKALKELAEKLGIEVEPESAGGSA [r15_242_TrROS_Hall]	2.03 ± 0.48
SAGGKVTLIEVEFEGGNPTISLTVTNADGSVEAVFVSPSPTDVLYATATLTVGGHPVVVVARASKDESAGGS [r16_672_TrMRF]	1.3 ± 0.094
SMSYTVTVEYPDTGKTTTTPIPPDALEVSVSLSGPSTIRITITTDVNGATTTTTSTVTLPPPALPPSTLLSA [r9_1067_JUSTAS]	1.11 ± 0.097
SAGGSALADRIAELARELGFEPVEIRYDPETGEVYALVRKPGGLLLRMRVEVDDDELHIEIEPLTDSAGGSA [r15_561_TrMRF]	4.34 ± 0.1
SAGEELIKKLAEELNLEVEIVSVEVDEETPTITVEVRVRNKDGEELTVRITITYDKETDEVHIEVEVLPSAG [r5_929_TrROS_Hall]	3.91 ± 0.14
SAGGSAGGSMTVETTPLATSRDPESDNTVTLTRTTVTFPDGTVRTETWTVTTAPDGTTTTTVSSAGGSAGGS [r12_250_JUSTAS]	0.00376 ± 0.037

experiment: folding stability dG unfold from chymotrypsin proteolysis; higher = more stable
Summary of the method: as §1

Sequence	folding stability dG unfold [kcal/mol]
MPLGLESERYPNGAPTIESVEVPEDGSVKITLYFPETGEKVEYTLPPNIPPGTEYEIDLPGPTGTGRLRLGS [r1_43_TrMRF]	1.65 ± 0.15
SAMDIGPEERAELLLRTLANIAKEEIEKGDLEKAKIFVINGIAEENPPLAERILKEAKELGLPVIILPESAG [r14_908_TrMRF]	1.13 ± 0.076
SAGGMLLLTLTVDRVEEAEFPEKVPYLRTTTQPVVVPGTTLEEAEAVAAALAAAHGVPVTLTVTPETGSAGG [r13_320_JUSTAS]	-0.175 ± 0.11
SAGGSAKELIIKIKIKVKVNGKTYEIEIEIKAESIEEAIEAIKKKLEEEGLEIEIVEIEIIPKEELSAGGSA [r15_165_TrROS_Hall]	3.08 ± 0.081
SAGGSAGGSAGMTRTVTFTITDPNSSNTTTITVPTTSEQDVAAAKAALKAANPNVTITLTSAGGSAGGSAGG [r11_233_JUSTAS]	0.954 ± 0.092
SAGGSAGGSAGRRRVFFTPDGTLIVVDELPDFVRVTRYRITPGFPRIEPVDTRVLPPGALSAGGSAGGSAGG [r11_844_TrMRF]	2.94 ± 0.086
SAGGSAGGGKMEYDPKDGTMRWRDPANGIEHESRIEIPPIVIPADDLPKLREQFPPDMPVVLAGSAGGSAGG [r6_104_TrROS]	0.94 ± 0.062
SAGGSAGGSMPVLVSESPVGTLPDGTKVTRVTYRFPNGEILTETVVEPGPGPPTPENVALTLASAGGSAGGS [r12_775_JUSTAS]	1.19 ± 0.23
SELVEKAAEKGVKEIHIYLSEEQREAILKAADAGVKITIHLPEGATVEELKALPGIKVDKVEVFSPEELKSA [r9_671_TrROS_Hall]	-0.078 ± 0.082
SAGSMKIKIKAKVPPGPYRIRIMWQYPGGDFKPVEEETVDPGQEVKIPIEFPDGKPFDPDNIRVMIEPPSAG [r5_287_TrROS]	2.47 ± 0.097
SAGGVLLEFPDGTTVEITVTTSTSTFKDPTTDKTVTKSSTTITVTRKTPDPVVTPVPASEAQRIFDSTSAGG [r13_809_JUSTAS]	2.96 ± 0.2
SAEERVFLVPVERRPDGSVRLRFVRPDRVVELELPAGFTVEDALQALSAHPDLRVEVLEAHPDLVLVRGSAG [r14_404_TrMRF]	2.741 ± 0.023
SKIKIEEVPEGEEVEIEIPETKKTITIVKKDDYLIIKVKDKKTGEEKEIVIKVPPENIEEVLKKIEELLKSA [r9_982_TrROS_Hall]	2.34 ± 0.25
SAGGMTVTLEIEIPAEELSEEELKALLEELFPNAEVTVERLPDGTLRITIRVEVPPAPPEVVVLPDKSAGGS [r16_535_TrROS_Hall]	2.97 ± 0.12
SADPPDAVKIEIRIYMMEYDPDGKWEQREFNIEIEVAPDGHIIIRLGNWWIVIDPKEGEVTEIFPGFRFSAG [r14_821_TrROS]	3.67 ± 0.18
SAGGSAGGSMSPEEARALAEALAEALGEPDVEVLEVVQTENPAADSTTVTVTIRLPDGSVRVLSAGGSAGGS [r12_508_JUSTAS]	1.481 ± 0.014
SAGGSAGGGGSSMTIVDPKDVPFGQTFTVTTYAPGGKKISTTTLTVDVPPPVWRTDGNGKWFLESAGGSAGG [r6_487_JUSTAS]	0.28 ± 0.27
SAGDPEVVAEAEFPFTFPLAKIEVRISVYPDGTARIEVTITFPAPGKGNPKKPIKLRFRFEIKLAPDALSAG [r5_224_TrMRF]	5.3 ± 0.15
SAGGSAGGSGAEEIAKALKELGVKKVEITVERNENGELTVTVRVEVEAPPPKVEVKTEEELKKSAGGSAGGS [r12_246_TrROS_Hall]	1.01 ± 0.14
SAGGSAGGSSAVVPLPDVVLVVLTFPDGGPPVLALLFPPTGRVVFVHPDSVTVAPFAPGGSLLSAGGSAGGS [r12_536_TrMRF]	1.74 ± 0.062
SAGGMTPEEARKLAEELAKKLEEEGKEVEVKVEVNKDGKVVKIEIKPEGEKVTITLPDGEKVLELELPSAGG [r13_693_TrROS_Hall]	1 ± 0.089

Reference: the supplement of paper PMC12764529
